# Measurements: patent US20150284450A1 (AstraZeneca / MedImmune, published 2015)
# B1: anti-PcrV monoclonal antibody V2L2 (antibody, V domains shown)
# VH: EMQLLESGGGLVQPGGSLRLSCAASGFTFSSYAMNWVRQAPGEGLEWVSAITISGITAYYTDSVKGRFTISRDNSKNTLYLQMNSLRAGDTAVYYCAKEEFLPGTHYYYGMDVWGQGTTVTVSS
# VL: AIQMTQSPSSLSASVGDRVTITCRASQGIRNDLGWYQQKPGKAPKLVIYSASTLQSGVPSRFSGSGSGTDFTLSISSLQPDDFATYYCLQDYNYPWTFGQGTKVEIK
# Target: PcrV as expressed by live P. aeruginosa (strains 6077 and 6206) in the cytotoxicity and RBC lysis assays (Pseudomonas aeruginosa)
# Assay: cell-based or functional assay
binder,measurement,value
B1,"inhibition of cytotoxicity (A549 lysis by P. aeruginosa 6077, LDH release), IC50",0.1 µg/mL
same,"inhibition of cytotoxicity, IC50 relative to mAb166",28 fold lower
same,"prevention of RBC lysis (rabbit RBCs, P. aeruginosa 6077), IC50",0.37 µg/mL
same,"prevention of RBC lysis, IC50 relative to mAb166",10 fold lower
